Assay results reported in patent US20060287229A1, “Novel CD40 variants” (priority 2004, published 2006).
“Also recorded” adds a separate entry of the source.

How the values were obtained:
K562 cells [1] = experiment: RT-PCR of CD40 splice forms in K562 cells treated with etoposide; format: cell-based; details: 20 μM Etoposide, various time intervals
Experimental: Samples of RT reactions of K562 treated with etoposide were prepared and used for PCR using CD40 primers (35 cycles). Etoposide (Sigma) is known as double-stranded DNA breakage and apoptosis inducing agent. The RT reactions were checked before the analysis to exclude possible genomic contamination and to ensure similar cDNA concentrations in the different samples, using quantitation with GAPDH (not shown).

K562 cells [2] = experiment: Caspase activation in K562 cells (immunoblot with anti cleaved PARP antibody); format: cell-based; details: 25 μM etoposide, 17 hrs
Experimental: For this purpose K562 cells were treated with 25 μM etoposide for 17 hrs, and the activation of caspases, one of the hallmarks of apoptosis, was measured. To measure caspase activation, the cells were lysed, immunoblotted and PARP, a known substrate for caspase-3, was probed using anti cleaved PARP antibody (Cell Signaling, Beverly, Mass.).

[3] = test system: RANTES secretion via the CD40-CD154 pathway; experiment: RANTES cell assay (HPMC cells overlaid with mouse fibroblasts/CD154-mouse fibroblasts, ELISA RANTES test); format: cell-based, human; details: for level of cytokine RANTES secretion (summary statement): human peritoneal cells plus mouse fibroblasts expressing CD154 ligand; for dose response of inhibition of RANTES secretion (in words): FIG. 18G: CD154 ligand present, high cell number 10,000
Experimental: Skipping 5 protein was administered to a mixture of human peritoneal cells (HPMC cells), which express the CD40 receptor on their membrane, and mouse fibroblasts transfected to express the CD154 ligand. The ability of the soluble skipping 5 protein to compete with the CD40 membrane-bound receptor for binding to the CD154 ligand presented on the mouse fibroblasts was thus tested. This ability was measured by determining the resultant level of the cytokine RANTES, which is a cytokine indicative of T cell activation, as compared to when a positive control of interferon (which raises the level of RANTES via a CD40-related pathway) was administered alone.
HPMC cells were grown in M199+10% FCS (Biological Industries, Bet Ha'emek, Israel), trypsinized (using trypsine from Biological Industries, Bet Ha'emek, Israel, 5 ml/75 cm^2 cell culture flask), and recultured into 96-well plates. Cell should reach at least 80% confluence before further use.
Mouse fibroblasts/CD154-mouse fibroblasts were grown in DMEM+10% FCS (Biological Industries). Cells were trypsinized, pelleted (5 min 500 at rpm), counted (½ vol cells+½ vol trypan blue) and resuspended in M199+10% FCS. Cells were then diluted (10,000 or 5000 cells per ml).
CD40 proteins/antibodies were prepared in various concentrations in PBS according to the desired dose response/treatment (volume of 1 reaction should not exceed 20 microliters), followed by adding the same volume of PBS to the negative and positive controls.
The CD40 protein was added to 100 microliters of mouse fibroblasts or CD154-mouse fibroblasts in eppendorf tubes (final volume dependant on duplicates/triplicates) and incubated at R.T for 1 h at 200 rpm (rotation during incubation)
During this incubation time the HPMC were prepared, by removing medium and washing cells twice, and adding 100 microliters of fresh M199+10% FCS with or without 100 U/ml IFN (PeproTech, 50U/μl).
The CD40 L cells mixtures were overlaid on the HPMC (110 ul/well) and incubated O.N (at 37° C., 5% CO2).
100 microliters were removed from supernatant and placed into new 96 well plates, followed by diluting the samples 1/10 in M199+10% FCS and using diluted samples for the ELISA RANTES test.
The cells in the experiment plate were checked for viability.

human CD154 = target: T1, human CD154 (Homo sapiens, UniProt P29965); experiment: FACS analysis of sCD40 binding to mouse fibroblasts expressing human CD154; details: Fc tagged proteins, 1-50 μg/ml, 4° C., 60 min; mouse fibroblasts stably transfected with full length human CD154
T1 construct: stably transfected with full length human CD154; expressed in transfected cells; host or cells: mouse fibroblasts, stably transfected
T1 sequence (P29965 1-261): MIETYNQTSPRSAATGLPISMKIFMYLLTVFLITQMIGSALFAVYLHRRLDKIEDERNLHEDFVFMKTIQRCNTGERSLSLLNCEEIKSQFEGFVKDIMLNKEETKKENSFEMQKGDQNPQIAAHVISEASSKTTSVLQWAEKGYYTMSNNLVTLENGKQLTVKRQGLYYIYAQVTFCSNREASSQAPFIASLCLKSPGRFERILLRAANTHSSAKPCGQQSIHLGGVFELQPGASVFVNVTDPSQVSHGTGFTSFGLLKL
Experimental: 10^6 mouse fibroblasts (stably transfected with full length human CD154) were incubated with either the known CD40 soluble variant, sCD40 WT (panel C, FIG. 17), the variant CD40-skipping 6 (panel A, FIG. 17) or the variant CD40-skipping 5 (panel B, FIG. 17). All CD40 variants were Fc tagged, and present at a concentration of 1-50 μg/ml at 4° C. for 60 min in total volume of 100 μl (0.5×10^6 cells). […] Analysis was performed using BD FACsCalibur. Panel E in FIG. 17 summarizes the mean fluorescence shift, as plotted versus various concentrations of CD40 protein.
Briefly, the FACS protocol was performed as follows. Mouse fibroblasts were trypsinized, and washed twice in PBS; cells were centrifuged at 1500 rpm for 10 min between washes. Next, the cells were re-suspended in FACS buffer (0.2% BSA and 0.02% sodium azide diluted 1/10 in PBS) to give 5-10×10^6 cells mL. Cells were placed in FACS test-tubes at a volume of 100 or 200 microliters per tube. […]
Next, 2 μL (1:50) anti CD40 non-blocking antibody (EA-5 mouse IgG1 PE-conjugated, obtained from Calbiochem) or controls (same isotype PE conjugated) were added to the tubes, and incubated for 30 min at 4° C. […] Next, 0.5 mL PBS was added to tubes, which were read in a FACS machine (BD FACSCalibur). […]
For this experiment, the controls included performing parallel assays with: mouse fibroblasts not expressing hCD154; non-relevant Fc (EA5, which is a mouse anti-CD40 antibody, see Malmborg Hager et al., Scandinavian J. 1 mm. 57:517-524 (2003) or non-Fc tagged proteins or purification mock; known CD40 soluble protein; secondary Ab only and isotype control only (isotype refers to an antibody control, featuring the same type of antibody but one which is not able to bind CD40). The axes are as follows: Y=cell counts; X=log scale of fluorescence intensity. M=A marker placed above the peak of positively stained cells on the histogram plot which provide the statistics of the stained population.

[4] = FIG. 18C: HPMC cells plus mouse fibroblasts expressing CD154, with interferon
[5] = FIG. 18E: fixed concentration 200 nM sCD40 protein, varying number of CD154+ mouse fibroblasts
[6] = FIGS. 18A-C, complete system with INF and CD154 mouse fibroblasts

COc1cc([C@@H]2c3cc4c(cc3[C@@H](O[C@@H]3O[C@@H]5CO[C@@H](C)O[C@H]5[C@H](O)[C@H]3O)[C@H]3COC(=O)[C@H]23)OCO4)cc(OC)c1O [Etoposide]
expression levels of secreted CD40 splice variant skipping exon 5 (RT-PCR) (K562 cells [1]): increase | known wild type CD40 expression levels (RT-PCR) (K562 cells [1]): decrease | cleaved PARP (caspase activation) (K562 cells [2]): appearance of a band in the expected size

known truncation product derived from known CD40: known CD40 extracellular domain without transmembrane domain, a simple truncation product of known CD40 [reference compound]
level of cytokine RANTES secretion (summary statement) [3]: decreased level

WT-sCD40-Fc: known CD40 extracellular domain (soluble, truncated) fused to Fc of IgG1 [reference compound]
sCD40 binding to membrane CD154 (FACS) (human CD154): significant binding | Rantes level [3, 4]: approximately 1000 pg/ml | inhibition of Rantes level [3, 4]: 50% | inhibition of RANTES secretion [3, 5]: 40-100% | dose response of inhibition of RANTES secretion (in words) [3]: inhibitory effect | effect on RANTES secretion (in words) [3, 6]: inhibitory properties

B1: Skip5: soluble CD40 splice variant lacking exon 5, SEQ ID NO:1, unique tail amino acids 136-160 (protein, listed as Homo sapiens)
chain: MVRLPLQCVLWGCLLTAVHPEPPTACREKQYLINSQCCSLCQPGQKLVSDCTEFTETECLPCGESEFLDTWNRETHCHQHKYCDPNLGLRVQQKGTSETDTICTCEEGWHCTSEACESCVLHRSCSPGFGVKQIAVRPKTWLCNRQAQTRLMLSVVPRIG
dose response of inhibition of RANTES secretion (in words) [3]: did not cause any inhibition | level of cytokine RANTES secretion (summary statement) ([3]; listed as CD40 skipping exon 5 variant): increased level | level of cytokine RANTES secretion (summary statement) ([3]; listed as skipping 5): raise the level of secretion

B2: Skipping 6-sCD40-Fc: Fc-tagged CD40 skipping exon 6 variant (protein)
chain: EPPTACREKQYLINSQCCSLCQPGQKLVSDCTEFTETECLPCGESEFLDTWNRETHCHQHKYCDPNLGLRVQQKGTSETDTICTCEEGWHCTSEACESCVLHRSCSPGFGVKQIATGVSDTICEPCPVGFFSNVSSAFEKCHPWTRSPGSAESPGGDPHHLRDPVCHPLGAGLYQKGGQEANQ
modifications: left off: a dimerising Fc or GST
notes: Fc-tagged CD40 skipping exon 6 variant
sCD40 binding to membrane CD154 (FACS) (human CD154): significant binding | dose response of inhibition of RANTES secretion (in words) [3]: inhibitory effect

B3: Skipping 5-sCD40-Fc: CD40 skipping exon 5 splice variant fused downstream to the Fc chain of Immunoglobulin IgG1, expressed in baculovirus (protein)
chain: EPPTACREKQYLINSQCCSLCQPGQKLVSDCTEFTETECLPCGESEFLDTWNRETHCHQHKYCDPNLGLRVQQKGTSETDTICTCEEGWHCTSEACESCVLHRSCSPGFGVKQIAVRPKTWLCNRQAQTRLMLSVVPRIG
modifications: left off: a dimerising Fc or GST
notes: CD40 skipping exon 5 splice variant fused downstream to the Fc chain of Immunoglobulin IgG1, expressed in baculovirus
sCD40 binding to membrane CD154 (FACS) (human CD154): different properties | effect on RANTES secretion (in words) [3, 5]: stimulatory effect | effect on RANTES level in the absence of CD154 (in words) ([3]; FIGS. 18A and B: HPMC cells only or with untransfected mouse fibroblasts, Interferon dependent): agonistic effect; also recorded: agonistic properties | effect on RANTES secretion (in words) [3, 6]: no inhibition
